{
  "source": "patent US20210253713A1",
  "about": "(ABEXXA BIOLOGICS, published 2021)",
  "key": {"[1]": {"molecular_target": "T1, HLA-E/… (human, UniProt P13747 22-297; P61769 21-119, limits assumed)", "T1 construct": "Biotin-labeled control complex captured on neutravidin plates through a C-terminal BirA tag; also called control HLA-E/peptide complex", "test": "ELISA, biotin-labeled complex on neutravidin plates, soluble bivalent IgG1, anti-human-HRP", "method": "(§1) To further evaluate the binding specificity and detection sensitivity of MAB-031 and MAB-036, a second ELISA was performed. For this assay, neutravidin coated plates were used to capture biotin-labeled HLA-E/peptide complexes. Because the HLA-E/peptide complexes have a single biotin molecule conjugated to the c-terminal end BirA tag, the immobilization of these complexes results in having the molecules lined up in a homogenous directional orientation. After incubation, unbound biotin-labeled HLA-E/peptide complexes are removed by rinsing the plate in a PBS+tween-20 buffer solution. MAB31 and MAB36 were then added to wells at concentrations that ranged from 1 ug/ml to 0.0001 ug/ml. Incubation was carried out for 1 hr, wells were rinsed and bound MAB was detected using a 1:2500 dilution of a goat anti-human-HRP conjugate. The assay was developed by adding the TMB substrate solution was added to wells and developed for 10 min before adding stop solution to terminate the reaction."}, "[2]": {"molecular_target": "T2, HLA-E/… (human, UniProt P13747 22-297; P61769 21-119, limits assumed)", "T2 construct": "Biotin-labeled control complex captured on neutravidin plates through a C-terminal BirA tag; also called control HLA-E/peptide complex", "test": "ELISA, biotin-labeled complex on neutravidin plates, soluble bivalent IgG1, anti-human-HRP", "method": "as §1", "remark": "listed apart in the source"}, "[3]": {"molecular_target": "T3, HLA-E/… (human, UniProt P13747 22-297; P61769 21-119, limits assumed)", "T3 construct": "Biotin-labeled control complex, used in both ELISA formats; also called control HLA-E/peptide complex", "test": "ELISA, biotin-labeled complex on neutravidin plates, soluble bivalent IgG1, anti-human-HRP", "method": "as §1"}, "[4]": {"molecular_target": "T4, HLA-E/… (human, UniProt P13747 22-297; P61769 21-119, limits assumed)", "T4 construct": "Biotin-labeled control complex captured on neutravidin plates through a C-terminal BirA tag; also called control HLA-E/peptide complex", "test": "ELISA, biotin-labeled complex on neutravidin plates, soluble bivalent IgG1, anti-human-HRP", "method": "as §1", "remark": "listed apart in the source"}, "[5]": {"molecular_target": "T5, HLA-E/… (human, UniProt P13747 22-297; P61769 21-119, limits assumed)", "T5 construct": "Biotin-labeled control complex captured on neutravidin plates through a C-terminal BirA tag; also called control HLA-E/peptide complex", "test": "ELISA, biotin-labeled complex on neutravidin plates, soluble bivalent IgG1, anti-human-HRP", "method": "as §1", "remark": "listed apart in the source"}, "[6]": {"molecular_target": "T6, HLA-E/… (human, UniProt P13747 22-297; P61769 21-119, limits assumed)", "T6 construct": "Soluble biotin-labeled control complex; also called control HLA-E/peptide complex", "test": "ELISA, antibody captured on Protein-A wells, soluble biotin-labeled HLA-E/peptide complex, SA-HRP", "method": "(§2) The isolated scFv VL and VH domains were cloned into pFUSE-hIgG1-Fc and pFUSE2-CLIg-hk plasmids, respectively and plasmid DNA was prepared using standard protocol and used to co-transfect a 200 ml culture of Expi-293 cells. Following the manufacturer's instructions, supernatants were harvested at day 5 post-transfection for antibody purification using Protein-A coated beads. Next, the purified mouse-human chimeric IgG1 antibody, MAB-031 and the fully human antibody, MAB-036 were characterized for binding specificity and sensitivity by ELISA. In brief, Protein-A coated 96-wells were used to capture either MAB-031 or MAB-036 added to wells at a concentration of 10 ug/ml. After incubation for 60 min, wells were washed using PBS (pH 7.4)+0.1% Tween-20 and soluble biotin-labeled HLA-E/peptide complexes were added to individual wells at concentrations ranging from 0.25 to 0.0625 ug/ml. Wells were washed 3× using a solution of PBS+Tween-20 and then streptavidin-Horseradish peroxidase (SA-HRP) conjugate was added to wells and incubated for 30 min. One final wash was done and the substrate solution containing 3,3′,5,5′-tetramethylbenzidine (TMB) was added to wells and developed for 10 min before adding stop solution (0.16M sulfuric acid) to terminate the reaction."}, "[7]": {"molecular_target": "T7, HLA-E/… (human, UniProt P13747 22-297; P61769 21-119, limits assumed)", "T7 construct": "Soluble biotin-labeled control complex; also called control HLA-E/peptide complex", "test": "ELISA, antibody captured on Protein-A wells, soluble biotin-labeled HLA-E/peptide complex, SA-HRP", "method": "as §2", "remark": "listed apart in the source"}},
  "data": [
    {"binder": "MAB-036 (anti-HLA-E/…) (antibody, V domains shown, Full-length human IgG1 (pFUSE vector system, human kappa); CDRs of R4Clone #1 mutated light chain were grafted onto trastuzumab VH and VL frameworks; also called MAB36) VH: EVQLVESGGGLVQPGGSLRLSCAASGFTFSSYAIHWVRQAPGKGLEWVARIAYGGGATRYADSVKGRFTISADTSKNTAYLQMNSLRAEDTAVYYCAKGLSNFDYWGQGTLVTVSS VL: DIQMTQSPSSLSASVGDRVTITCRASQSISSYLNWYQQKPGKAPKLLIYNAAFLYSGVPSRFSGSRSGTDFTLTISSLQPEDFATYYCQQAATYPATFGQGTKVEIK", "values": [
      {"measurement": "binding result", "setting": "[1]", "value": "no binding (tested: 1 ug/ml to 0.0001 ug/ml)"},
      {"measurement": "binding result", "setting": "[2]", "value": "no binding (tested: 1 ug/ml to 0.0001 ug/ml)"},
      {"measurement": "binding result", "setting": "[3]", "value": "no binding (tested: 1 ug/ml to 0.0001 ug/ml)"},
      {"measurement": "binding result", "setting": "[4]", "value": "no binding (tested: 1 ug/ml to 0.0001 ug/ml)"},
      {"measurement": "binding result", "setting": "[5]", "value": "no binding (tested: 1 ug/ml to 0.0001 ug/ml)"},
      {"measurement": "binding result", "setting": "[6]", "value": "no binding"},
      {"measurement": "binding result", "setting": "[7]", "value": "no binding"}
    ]},
    {"binder": "MAB-031 (anti-HLA-E/…) (antibody, V domains shown, also called MAB31; MAB-31) VH: QVQLQQSGPELVKPGASVKMSCKASGYTFTDYVISWVKQRTGQGLEWIGEIYPGNNTTYYNDNFRGKATLTVDKSSSTAYMQLSSLTSEDSAVYYCARESLGIYYGSTYKGLYAMDYWGQGTTLTVSS VL: QIVLTQSPAIMSASPGEKVTITCSASSSVSYMHWFQQKPGTSPKLWIYSTSNLASGVPARFSGSGSGTSYSLTISRMEAEDAATYYCQQRSSYPPTFGAGTKLELKR", "values": [
      {"measurement": "binding result", "setting": "[1]", "value": "no binding (tested: 1 ug/ml to 0.0001 ug/ml)"},
      {"measurement": "binding result", "setting": "[2]", "value": "no binding (tested: 1 ug/ml to 0.0001 ug/ml)"},
      {"measurement": "binding result", "setting": "[3]", "value": "no binding (tested: 1 ug/ml to 0.0001 ug/ml)"},
      {"measurement": "binding result", "setting": "[4]", "value": "no binding (tested: 1 ug/ml to 0.0001 ug/ml)"},
      {"measurement": "binding result", "setting": "[5]", "value": "no binding (tested: 1 ug/ml to 0.0001 ug/ml)"},
      {"measurement": "binding result", "setting": "[6]", "value": "no binding"},
      {"measurement": "binding result", "setting": "[7]", "value": "no binding"}
    ]}
  ]
}
